Sequences and labels used below:
B1: Hammerhead Ribozyme (parent)
chain: ACCGGAUGUGCUUUCCGGUCUGAUGAGUCCGUGAGGACGAAACAG

The variants in this data set derive from B1. As to the kind of experiment: self-cleavage, relative activity (ratio to wild type); higher = more cleavage; co-transcriptional.
Turning to ACCGGAUGUGCUGUCAGGUCUGAUGAGUCCGUGAGGACGAAACAG [U13G C16A], the self-cleavage was 0.765.

On to ACCGGAUGUGCUGUCGGGUCUGAUGAGUCCGUGAGGACGAAACAG [U13G C16G], for which the self-cleavage was 0.899.

ACCGGAUGUGCUGUCUGGUCUGAUGAGUCCGUGAGGACGAAACAG [U13G C16U]: the self-cleavage worked out at 0.836.

In the case of ACCGGAUGUGCUCUCCGGUCUGAUGAGUCCGUUAGGACGAAACAG [U13C G33U], the self-cleavage worked out at 1.14.

Regarding ACCGGAUGUGCUCUCCGGUCUGAUGAGUCCGUAAGGACGAAACAG [U13C G33A], the self-cleavage came to 1.37.

As for ACCGGAUGUGCUCUCCGGUCUGAUGAGUCCGUCAGGACGAAACAG [U13C G33C], the self-cleavage was found to be 0.889.

On to ACCGGAUGUGCUCACCGGUCUGAUGAGUCCGUGAGGACGAAACAG [U13C U14A], for which the self-cleavage came out at 0.621.

Take ACCGGAUGUGCUCGCCGGUCUGAUGAGUCCGUGAGGACGAAACAG [U13C U14G]: the self-cleavage was 0.364.

Regarding ACCGGAUGUGCUCCCCGGUCUGAUGAGUCCGUGAGGACGAAACAG [U13C U14C], the self-cleavage turned out to be 0.862.

As to ACCGGAUGUGCUCUCCGGUCUGAUGAGUCCGUGAGGACGAAUCAG [U13C A42U], the self-cleavage worked out at 0.327.

For ACCGGAUGUGCUCUCCGGUCUGAUGAGUCCGUGAGGACGAACCAG [U13C A42C], the self-cleavage turned out to be 0.313.

Consider ACCGGAUGUGCUCUCCGGUCUGAUGAGUCCGUGAGGACGAAGCAG [U13C A42G], for which the self-cleavage came to 0.232.

In the case of ACCGGAUGUGCUCUCCGGUCUGAUGAGUCCGUGAGAACGAAACAG [U13C G36A], the self-cleavage came out at 0.701.

With ACCGGAUGUGCUCUCCGGUCUGAUGAGUCCGUGAGCACGAAACAG [U13C G36C], the self-cleavage was found to be 0.336.

Turning to ACCGGAUGUGCUCUCCGGUCUGAUGAGUCCGUGAGUACGAAACAG [U13C G36U], the self-cleavage stood at 0.598.

On to ACCGGAUGUGCUGUCCGGUCUGAUGAGUCCGUGAGGACGGAACAG [U13G A40G], for which the self-cleavage is 0.281.

In the case of ACCGGAUGUGCUGUCCGGUCUGAUGAGUCCGUGAGGACGUAACAG [U13G A40U], the self-cleavage is 0.303.

In the case of ACCGGAUGUGCUGUCCGGUCUGAUGAGUCCGUGAGGACGCAACAG [U13G A40C], the self-cleavage is 0.454.

Take ACCGGAUGUGCUCUCCGGUCUGAUGAGUCCGUGAGGACUAAACAG [U13C G39U]: the self-cleavage came to 0.419.

With ACCGGAUGUGCUCUCCGGUCUGAUGAGUCCGUGAGGACAAAACAG [U13C G39A], the self-cleavage turned out to be 0.293.

With ACCGGAUGUGCUCUCCGGUCUGAUGAGUCCGUGAGGACCAAACAG [U13C G39C], the self-cleavage turned out to be 0.471.

ACCGGAUGUGCUGUCCGGUCUGAUGAGUCCGUGAGGACGAUACAG [U13G A41U]: the self-cleavage was 0.272.

Take ACCGGAUGUGCUGUCCGGUCUGAUGAGUCCGUGAGGACGAGACAG [U13G A41G]: the self-cleavage was found to be 0.423.

Turning to ACCGGAUGUGCUGUCCGGUCUGAUGAGUCCGUGAGGACGACACAG [U13G A41C], the self-cleavage is 0.348.

As to ACCGGAUGUGCUCUCCGGUCUGAUCAGUCCGUGAGGACGAAACAG [U13C G25C], the self-cleavage amounted to 0.264.

Take ACCGGAUGUGCUCUCCGGUCUGAUAAGUCCGUGAGGACGAAACAG [U13C G25A]: the self-cleavage amounted to 0.395.

Regarding ACCGGAUGUGCUCUCCGGUCUGAUUAGUCCGUGAGGACGAAACAG [U13C G25U], the self-cleavage came out at 0.367.

For ACCGGAUGUGCUCUCCGGUCUGAUGAGUCCGUGAGGACGAAACAC [U13C G45C], the self-cleavage was 0.743.

With ACCGGAUGUGCUCUCCGGUCUGAUGAGUCCGUGAGGACGAAACAA [U13C G45A], the self-cleavage amounted to 0.878.

As for ACCGGAUGUGCUCUCCGGUCUGAUGAGUCCGUGAGGACGAAACAU [U13C G45U], the self-cleavage is 0.965.

As to ACCGGAUGUGCUGUCCGGUUUGAUGAGUCCGUGAGGACGAAACAG [U13G C20U], the self-cleavage was determined as 0.435.

For ACCGGAUGUGCUGUCCGGUAUGAUGAGUCCGUGAGGACGAAACAG [U13G C20A], the self-cleavage amounted to 0.374.

For the variant ACCGGAUGUGCUGUCCGGUGUGAUGAGUCCGUGAGGACGAAACAG [U13G C20G], the self-cleavage came out at 0.244.

With ACCGGAUGUGCUCUCCGGUCUGAUGAGUCCGUGAGGACGAAAUAG [U13C C43U], the self-cleavage was determined as 0.499.

With ACCGGAUGUGCUCUCCGGUCUGAUGAGUCCGUGAGGACGAAAGAG [U13C C43G], the self-cleavage is 0.278.

Consider ACCGGAUGUGCUCUCCGGUCUGAUGAGUCCGUGAGGACGAAAAAG [U13C C43A], for which the self-cleavage came out at 0.35.

Take ACCGGAUGUGCUCUCCGGUCUGAUGAGUCCGUGAGGACGAUACAG [U13C A41U]: the self-cleavage was 0.362.

With ACCGGAUGUGCUCUCUGGUCUGAUGAGUCCGUGAGGACGAAACAG [U13C C16U], the self-cleavage stood at 0.976.

In the case of ACCGGAUGUGCUCUCGGGUCUGAUGAGUCCGUGAGGACGAAACAG [U13C C16G], the self-cleavage was found to be 0.666.

For the variant ACCGGAUGUGCUCUCAGGUCUGAUGAGUCCGUGAGGACGAAACAG [U13C C16A], the self-cleavage stood at 1.05.

For ACCGGAUGUGCUCUCCGGUCUCAUGAGUCCGUGAGGACGAAACAG [U13C G22C], the self-cleavage came to 0.247.

ACCGGAUGUGCUCUCCGGUCUAAUGAGUCCGUGAGGACGAAACAG [U13C G22A]: the self-cleavage was determined as 0.243.

Consider ACCGGAUGUGCUCUCCGGUCUUAUGAGUCCGUGAGGACGAAACAG [U13C G22U], for which the self-cleavage is 0.346.

Consider ACCGGAUGUGCUGUCCGGUCUGAUGAGUCCGUGAGGGCGAAACAG [U13G A37G], for which the self-cleavage came to 0.868.

Regarding ACCGGAUGUGCUGUCCGGUCUGAUGAGUCCGUGAGGCCGAAACAG [U13G A37C], the self-cleavage came out at 0.96.

As for ACCGGAUGUGCUGUCCGGUCUGAUGAGUCCGUGAGGUCGAAACAG [U13G A37U], the self-cleavage was found to be 0.625.

As for ACCGGAUGUGCUGUCCGGUCUGAUGAGUCCGUGAGGACGAAACAG [U13G], the self-cleavage turned out to be 0.924.

Regarding ACCGGAUGUGCUGUCCGGUCUGAUGAGUACGUGAGGACGAAACAG [U13G C29A], the self-cleavage was 0.595.

ACCGGAUGUGCUGUCCGGUCUGAUGAGUCCGUGAGGACGAACCAG [U13G A42C]: the self-cleavage came to 0.276.

In the case of ACCGGAUGUGCUGUCCGGUCUGAUGAGUCCGUGAGGACGAAGCAG [U13G A42G], the self-cleavage turned out to be 0.316.

With ACCGGAUGUGCUGUCCGGUCUGAUGAGUCCGUGAGGACGAAUCAG [U13G A42U], the self-cleavage came to 0.333.

With ACCGGAUGUGCUGUCCGGUCUGAUGCGUCCGUGAGGACGAAACAG [U13G A26C], the self-cleavage turned out to be 0.383.

On to ACCGGAUGUGCUGUCCGGUCUGAUGGGUCCGUGAGGACGAAACAG [U13G A26G], for which the self-cleavage came to 0.301.

On to ACCGGAUGUGCUGUCCGGUCUGAUGUGUCCGUGAGGACGAAACAG [U13G A26U], for which the self-cleavage amounted to 0.678.

ACCGGAUGUGCUCUGCGGUCUGAUGAGUCCGUGAGGACGAAACAG [U13C C15G]: the self-cleavage is 0.728.

With ACCGGAUGUGCUCUUCGGUCUGAUGAGUCCGUGAGGACGAAACAG [U13C C15U], the self-cleavage was 1.03.

On to ACCGGAUGUGCUCUACGGUCUGAUGAGUCCGUGAGGACGAAACAG [U13C C15A], for which the self-cleavage came out at 0.834.

For the origin of these results see the RNAGym collection of RNA variant scans (doi:10.7554/elife.80360).
